This note sets out measurements from publication PMC3466232, “FUS-NLS/Transportin 1 Complex Structure Provides Insights into the Nuclear Targeting Mechanism of FUS and the Implications in ALS” (PLoS ONE, 2012).

T1: human transportin 1 (Trn1, residues 1-890) (human, UniProt Q92973-2 1-890)
T1 construct: transportin 1 (Trn1), human, full-length, residues 1-890; numbers count on: the 890-residue form; Cloned in pGEX-4T-3 with a TEV site; clone was a gift from Y. M. Chook; source: E. coli BL21 (DE3), purified (glutathione Sepharose, TEV cleavage, HiTrap Q FF, Superdex 200)
T1 sequence (looked up): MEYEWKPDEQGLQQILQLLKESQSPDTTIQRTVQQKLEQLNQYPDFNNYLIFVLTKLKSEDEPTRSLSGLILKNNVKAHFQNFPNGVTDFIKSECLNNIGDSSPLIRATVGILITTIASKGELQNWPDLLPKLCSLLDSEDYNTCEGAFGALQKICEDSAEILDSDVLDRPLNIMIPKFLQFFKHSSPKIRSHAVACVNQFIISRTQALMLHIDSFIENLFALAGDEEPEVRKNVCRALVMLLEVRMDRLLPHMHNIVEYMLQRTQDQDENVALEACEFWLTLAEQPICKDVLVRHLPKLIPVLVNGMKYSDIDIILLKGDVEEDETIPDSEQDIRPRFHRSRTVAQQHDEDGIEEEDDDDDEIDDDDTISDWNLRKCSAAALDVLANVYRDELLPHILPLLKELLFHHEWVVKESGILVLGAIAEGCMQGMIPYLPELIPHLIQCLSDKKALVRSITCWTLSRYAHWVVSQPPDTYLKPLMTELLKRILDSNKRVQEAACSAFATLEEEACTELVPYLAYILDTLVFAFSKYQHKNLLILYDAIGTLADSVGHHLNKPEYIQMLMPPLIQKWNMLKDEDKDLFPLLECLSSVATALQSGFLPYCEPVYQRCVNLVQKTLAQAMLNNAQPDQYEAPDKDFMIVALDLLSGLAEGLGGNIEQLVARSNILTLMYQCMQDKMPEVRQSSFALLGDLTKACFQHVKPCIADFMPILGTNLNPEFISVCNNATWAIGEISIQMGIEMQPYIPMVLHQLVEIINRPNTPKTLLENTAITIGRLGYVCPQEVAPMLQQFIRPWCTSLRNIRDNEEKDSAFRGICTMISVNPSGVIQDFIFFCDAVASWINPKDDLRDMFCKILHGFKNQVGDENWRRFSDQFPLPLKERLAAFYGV

B1: FUS-NLS(R518G) (domain or fragment, human, UniProt P35637 495-526, looked up)
chain: RGGRGGGDRGGFGPGKMDSRGEHGQDRRERPY
notes: ALS-associated mutation found in patients; made by site-directed mutagenesis; not shown: GST, N-terminal, cleaved
B2: FUS-NLS(H517P) (domain or fragment, human, UniProt P35637 495-526, looked up)
chain: B1 chain with H23P, G24R
notes: as for B1
B3: FUS-NLS(Y526A) (domain or fragment, human, UniProt P35637 495-526, looked up)
chain: B1 chain with G24R, Y32A
notes: Designed from the structure; not found in familial ALS patients; not shown: GST, N-terminal, cleaved
B4: FUS-NLS(R522G) (domain or fragment, human, UniProt P35637 495-526, looked up)
chain: B1 chain with G24R, R28G
notes: as for B1
B5: FUS-NLS(K510E) (domain or fragment, human, UniProt P35637 495-526, looked up)
chain: B1 chain with K16E, G24R
notes: as for B1
B6: FUS-NLS(P525L) (domain or fragment, human, UniProt P35637 495-526, looked up)
chain: B1 chain with G24R, P31L
notes: as for B1
B7: FUS-NLS(R514G) (domain or fragment, human, UniProt P35637 495-526, looked up)
chain: B1 chain with R20G, G24R
notes: as for B1
B8: nuclear localization sequence of human FUS (FUS-NLS, residues 495-526), wild type (domain or fragment, UniProt P35637 495-526, looked up)
chain: B1 chain with G24R
notes: Cloned in pGEX-6P-2; also called FUS-NLS(WT); WT; not shown: GST, N-terminal, cleaved
B9: FUS-NLS(S513P) (domain or fragment, human, UniProt P35637 495-526, looked up)
chain: B1 chain with S19P, G24R
notes: as for B1
B10: FUS-NLS(E523S) (domain or fragment, human, UniProt P35637 495-526, looked up)
chain: B1 chain with G24R, E29S
notes: as for B3
B11: FUS-NLS(G507D) (domain or fragment, human, UniProt P35637 495-526, looked up)
chain: B1 chain with G13D, G24R
notes: as for B1
B12: FUS-NLS(R524S) (domain or fragment, human, UniProt P35637 495-526, looked up)
chain: B1 chain with G24R, R30S
notes: as for B1
B13: FUS-NLS(G515C) (domain or fragment, human, UniProt P35637 495-526, looked up)
chain: B1 chain with G21C, G24R
notes: as for B1
B14: FUS-NLS(R521G) (domain or fragment, human, UniProt P35637 495-526, looked up)
chain: B1 chain with G24R, R27G
notes: as for B1
B15: FUS-NLS(R518K) (domain or fragment, human, UniProt P35637 495-526, looked up)
chain: B1 chain with G24K
notes: as for B1
B16: FUS-NLS(E523Y) (domain or fragment, human, UniProt P35637 495-526, looked up)
chain: B1 chain with G24R, E29Y
notes: as for B3

Substitutions are numbered along the chain they refer to. Names and notes keep the numbering of the source.

One experiment has as its target T1, human transportin 1 (Trn1, residues …). The experiment in a line: SPR; BIAcore 3000, 25°C; Trn1 immobilised on a CM5 chip by amine coupling (about 8600 RU); same running buffer; kd too fast to be fit, KD from steady state equilibrium binding against the concentration of the injected protein. As to conditions: both partners purified.
One may read the Kd as the free concentration of one partner at which half of the binding sites on the other are occupied at equilibrium, for simple one-to-one binding. A high value points to a looser complex. As for B1, the Kd was 0.15 µM.

In turn, B2 displayed a Kd of 0.14 µM.

For the molecule B3, the Kd is 0.89 µM.

In turn, B4 had a Kd of 0.35 µM.

The molecule B5 gave a Kd of 0.15 µM.

For B6, binding was put at a Kd of 1.2 µM.

As to B7, the dissociation constant Kd worked out at 0.067 µM.

The target is the same in another experiment. The experiment in a line: SPR; BIAcore 3000, 25°C; Trn1 immobilised on a CM5 chip by amine coupling (about 8600 RU); FUS-NLS injected at increasing concentrations, 50 µl/min; 20 mM HEPES pH 7.3, 110 mM potassium acetate, 2 mM magnesium acetate, 2 mM EGTA, 2 mM DTT, 10% glycerol, 0.005% Tween 20; 1:1 Langmuir fit. As to conditions: both partners purified. (In general: Surface plasmon resonance follows binding to a sensor surface in real time, without labels.)
A word on the koff: it is a measure of how fast the partners let go of each other. The low end stands for slow dissociation, the high end for fast dissociation. As a reminder, the kon is a measure of how fast the partners come together. B8: the Kd was 0.0017 µM, the koff stood at 0.0037 s⁻¹ and the kon came to 2.3e+06 M⁻¹ s⁻¹.

The molecule B9 returned a Kd of 0.0024 µM, a koff of 0.023 s⁻¹ and a kon of 9.4e+06 M⁻¹ s⁻¹.

Molecule B10 registered a Kd of 0.002 µM, a koff of 1.1e-05 s⁻¹ and a kon of 5500 M⁻¹ s⁻¹.

With B11, the Kd was 0.0078 µM, the koff is 0.044 s⁻¹ and the kon is 5.7e+06 M⁻¹ s⁻¹.

Take B12: binding was characterised by a dissociation constant (Kd) of 0.01 µM, the koff was 0.058 s⁻¹ and the kon is 5.6e+06 M⁻¹ s⁻¹.

Molecule B13 showed a dissociation constant Kd of 0.0028 µM, a koff of 0.0051 s⁻¹ and a kon of 1.8e+06 M⁻¹ s⁻¹.

B14 gave a dissociation constant Kd of 0.025 µM, a koff of 0.0034 s⁻¹ and a kon of 140000 M⁻¹ s⁻¹.

In the case of B15, the Kd is 0.013 µM, the koff came out at 0.078 s⁻¹ and the kon is 6e+06 M⁻¹ s⁻¹.

The next experiment has the same target. Described as above. To be noted: both partners purified. The source holds these as a separate data set.
Consider B16, for which the binding result is on record as “binds”.
